From the supplement of paper PMC7125110
± gives the standard error. For some of these results: Variants at the floor of the assay were thinned out.

B1: glmS ribozyme (parent)
chain: AUAAAAGCGCCAGAACUACAGAAAUGUAGUUGACGAGGAGGAGGUUUAUCGAAUUUUCGGCGGAUGCCUCCAAA

Tests used:
Details in all cases: with glucosamine-6-phosphate
glucosamine-6-phosphate [1] = variants of: B1; assay: kcat; higher = faster cleavage; RNA array
Outline: (§1)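 Glucosamine-6-phosphate (40 μM to 10 mM) in HEPES/KCl/Mg(OAc)2 buffer was flowed over sequenced MiSeq chips, and tiles were imaged over ~14 h. Barcoded ribozyme variants there had been transcribed in situ by E. coli RNA polymerase and were tracked through a hybridised Cy3 probe at 37 °C. One- or two-exponential decay fits to per-tile medians, normalised to baseline and to non-cleaving reference variants, gave kobs. kcat and KM came from weighted Michaelis–Menten fits across concentrations.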

glucosamine-6-phosphate [2] = variants of: B1; assay: self-cleavage kobs at 160 uM GlcN6P; higher = faster cleavage; RNA array
Outline: as §1

glucosamine-6-phosphate [3] = variants of: B1; assay: self-cleavage kobs at 640 uM GlcN6P; higher = faster cleavage; RNA array
Outline: as §1

glucosamine-6-phosphate [4] = variants of: B1; assay: self-cleavage kobs at 2500 uM GlcN6P; higher = faster cleavage; RNA array
Outline: as §1

glucosamine-6-phosphate [5] = variants of: B1; assay: self-cleavage kobs at 10000 uM GlcN6P; higher = faster cleavage; RNA array
Outline: as §1

glucosamine-6-phosphate [6] = variants of: B1; assay: KM; higher = weaker cofactor use; RNA array
Outline: as §1

glucosamine-6-phosphate [7] = variants of: B1; assay: self-cleavage kobs at 40 uM GlcN6P; higher = faster cleavage; RNA array
Outline: as §1

For C34A C71G, the kcat (glucosamine-6-phosphate [1]) was 1.15e-05 ± 3.9e-06 s⁻¹ and the “self-cleavage kobs at 160 uM GlcN6P” value (glucosamine-6-phosphate [2]) was < 1e-05 s⁻¹.

In the case of G29A U49G, the kcat (glucosamine-6-phosphate [1]) is reported as 6e-05 ± 8e-06 s⁻¹, the “self-cleavage kobs at 640 uM GlcN6P” value (glucosamine-6-phosphate [3]) is reported as 4.72e-05 ± 1.7e-05 s⁻¹ and the “self-cleavage kobs at 2500 uM GlcN6P” value (glucosamine-6-phosphate [4]) is reported as 4.32e-05 ± 1.4e-05 s⁻¹. The “self-cleavage kobs at 10000 uM GlcN6P” value (glucosamine-6-phosphate [5]) was 6.26e-05 ± 1.1e-05 s⁻¹.

In the case of G32U C71A, the kcat (glucosamine-6-phosphate [1]) is reported as 0.000322 ± 6.6e-05 s⁻¹, the KM (glucosamine-6-phosphate [6]) is reported as 4080 ± 1900 µM and the “self-cleavage kobs at 640 uM GlcN6P” value (glucosamine-6-phosphate [3]) is reported as 3.16e-05 ± 1.1e-05 s⁻¹. The “self-cleavage kobs at 2500 uM GlcN6P” value (glucosamine-6-phosphate [4]) was 0.000161 ± 2.6e-05 s⁻¹ and the “self-cleavage kobs at 10000 uM GlcN6P” value (glucosamine-6-phosphate [5]) was 0.000222 ± 2.3e-05 s⁻¹.

In the case of U31A G40U, the kcat (glucosamine-6-phosphate [1]) is reported as 0.00159 ± 0.00017 s⁻¹, the KM (glucosamine-6-phosphate [6]) is reported as 1080 ± 240 µM and the “self-cleavage kobs at 40 uM GlcN6P” value (glucosamine-6-phosphate [7]) is reported as 6.29e-05 ± 1.4e-05 s⁻¹. The “self-cleavage kobs at 640 uM GlcN6P” value (glucosamine-6-phosphate [3]) was 0.000444 ± 0.00018 s⁻¹, the “self-cleavage kobs at 2500 uM GlcN6P” value (glucosamine-6-phosphate [4]) was 0.00109 ± 0.00024 s⁻¹ and the “self-cleavage kobs at 10000 uM GlcN6P” value (glucosamine-6-phosphate [5]) was 0.00148 ± 0.00022 s⁻¹.

Variant C10U A12U C50U has a kcat (glucosamine-6-phosphate [1]) of 2.27e-05 ± 6.7e-06 s⁻¹.

A39U C50U was tested, and the kcat (glucosamine-6-phosphate [1]) was 4.51e-05 ± 4.1e-06 s⁻¹, the KM (glucosamine-6-phosphate [6]) was 1250 ± 570 µM and the “self-cleavage kobs at 2500 uM GlcN6P” value (glucosamine-6-phosphate [4]) was 3.23e-05 ± 9.4e-06 s⁻¹. For the same variant, the “self-cleavage kobs at 10000 uM GlcN6P” value (glucosamine-6-phosphate [5]) was 3.95e-05 ± 7.1e-06 s⁻¹.

With U54A U69G the kcat (glucosamine-6-phosphate [1]) was 6.78e-05 ± 1.1e-05 s⁻¹, the “self-cleavage kobs at 160 uM GlcN6P” value (glucosamine-6-phosphate [2]) was 6.31e-05 ± 2.8e-05 s⁻¹ and the “self-cleavage kobs at 640 uM GlcN6P” value (glucosamine-6-phosphate [3]) was 9.07e-05 ± 1.8e-05 s⁻¹. The “self-cleavage kobs at 2500 uM GlcN6P” value (glucosamine-6-phosphate [4]) was 9.01e-05 ± 1.6e-05 s⁻¹ and the “self-cleavage kobs at 10000 uM GlcN6P” value (glucosamine-6-phosphate [5]) was 5.62e-05 ± 8.3e-06 s⁻¹.

In the case of A33U G60C, the kcat (glucosamine-6-phosphate [1]) is reported as < 1e-05 s⁻¹, the “self-cleavage kobs at 40 uM GlcN6P” value (glucosamine-6-phosphate [7]) is reported as < 1e-05 s⁻¹ and the “self-cleavage kobs at 640 uM GlcN6P” value (glucosamine-6-phosphate [3]) is reported as < 1e-05 s⁻¹. The “self-cleavage kobs at 10000 uM GlcN6P” value (glucosamine-6-phosphate [5]) was < 1e-05 s⁻¹.

For A39G U65A, the kcat (glucosamine-6-phosphate [1]) was 0.0108 ± 0.0047 s⁻¹, the “self-cleavage kobs at 40 uM GlcN6P” value (glucosamine-6-phosphate [7]) was 0.000266 ± 6.6e-05 s⁻¹ and the “self-cleavage kobs at 640 uM GlcN6P” value (glucosamine-6-phosphate [3]) was 0.00201 ± 0.00056 s⁻¹. The “self-cleavage kobs at 2500 uM GlcN6P” value (glucosamine-6-phosphate [4]) was 0.00741 ± 0.0031 s⁻¹ and the “self-cleavage kobs at 10000 uM GlcN6P” value (glucosamine-6-phosphate [5]) was 0.00966 ± 0.0034 s⁻¹.

For C50U U57A G59C U65A C70U, the kcat (glucosamine-6-phosphate [1]) was 2.56e-05 ± 4.5e-06 s⁻¹, the KM (glucosamine-6-phosphate [6]) was 293 ± 140 µM and the “self-cleavage kobs at 40 uM GlcN6P” value (glucosamine-6-phosphate [7]) was < 1e-05 s⁻¹. The “self-cleavage kobs at 10000 uM GlcN6P” value (glucosamine-6-phosphate [5]) was < 1e-05 s⁻¹.

A39G G41C was tested, and the kcat (glucosamine-6-phosphate [1]) was 4.55e-05 ± 7.4e-06 s⁻¹, the “self-cleavage kobs at 40 uM GlcN6P” value (glucosamine-6-phosphate [7]) was < 1e-05 s⁻¹ and the “self-cleavage kobs at 2500 uM GlcN6P” value (glucosamine-6-phosphate [4]) was 5.57e-05 ± 1.5e-05 s⁻¹. For the same variant, the “self-cleavage kobs at 10000 uM GlcN6P” value (glucosamine-6-phosphate [5]) was 3.84e-05 ± 1.2e-05 s⁻¹.

For A12G U31G, the kcat (glucosamine-6-phosphate [1]) was 0.000573 ± 0.00012 s⁻¹, the KM (glucosamine-6-phosphate [6]) was 4660 ± 1500 µM and the “self-cleavage kobs at 640 uM GlcN6P” value (glucosamine-6-phosphate [3]) was 6.61e-05 ± 8.2e-06 s⁻¹. For the same variant, the “self-cleavage kobs at 2500 uM GlcN6P” value (glucosamine-6-phosphate [4]) was 0.000254 ± 3.4e-05 s⁻¹ and the “self-cleavage kobs at 10000 uM GlcN6P” value (glucosamine-6-phosphate [5]) was 0.000374 ± 3.9e-05 s⁻¹.

Work on C16G U47G C50G C68G yielded a kcat (glucosamine-6-phosphate [1]) of 1.23e-05 ± 1.9e-06 s⁻¹.

With G13U G37U the kcat (glucosamine-6-phosphate [1]) was < 1e-05 s⁻¹, the “self-cleavage kobs at 640 uM GlcN6P” value (glucosamine-6-phosphate [3]) was < 1e-05 s⁻¹ and the “self-cleavage kobs at 10000 uM GlcN6P” value (glucosamine-6-phosphate [5]) was < 1e-05 s⁻¹.

For A15C G32A, the kcat (glucosamine-6-phosphate [1]) was 0.00227 ± 0.0006 s⁻¹, the KM (glucosamine-6-phosphate [6]) was 3610 ± 1400 µM and the “self-cleavage kobs at 40 uM GlcN6P” value (glucosamine-6-phosphate [7]) was 4.19e-05 ± 1.9e-05 s⁻¹. For the same variant, the “self-cleavage kobs at 160 uM GlcN6P” value (glucosamine-6-phosphate [2]) was 9.83e-05 ± 3.7e-05 s⁻¹, the “self-cleavage kobs at 640 uM GlcN6P” value (glucosamine-6-phosphate [3]) was 0.000293 ± 6.8e-05 s⁻¹ and the “self-cleavage kobs at 2500 uM GlcN6P” value (glucosamine-6-phosphate [4]) was 0.0012 ± 0.00025 s⁻¹. The “self-cleavage kobs at 10000 uM GlcN6P” value (glucosamine-6-phosphate [5]) was 0.00157 ± 0.00034 s⁻¹.

With C11U G59A the kcat (glucosamine-6-phosphate [1]) was 0.0105 ± 0.0043 s⁻¹, the “self-cleavage kobs at 40 uM GlcN6P” value (glucosamine-6-phosphate [7]) was 0.000335 ± 3.7e-05 s⁻¹ and the “self-cleavage kobs at 160 uM GlcN6P” value (glucosamine-6-phosphate [2]) was 0.0014 ± 0.00027 s⁻¹. For the same variant, the “self-cleavage kobs at 640 uM GlcN6P” value (glucosamine-6-phosphate [3]) was 0.00203 ± 0.0004 s⁻¹, the “self-cleavage kobs at 2500 uM GlcN6P” value (glucosamine-6-phosphate [4]) was 0.00582 ± 0.0018 s⁻¹ and the “self-cleavage kobs at 10000 uM GlcN6P” value (glucosamine-6-phosphate [5]) was 0.0116 ± 0.0016 s⁻¹.

With G62A C70G the kcat (glucosamine-6-phosphate [1]) was 4.83e-05 ± 2.2e-05 s⁻¹, the “self-cleavage kobs at 40 uM GlcN6P” value (glucosamine-6-phosphate [7]) was < 1e-05 s⁻¹ and the “self-cleavage kobs at 640 uM GlcN6P” value (glucosamine-6-phosphate [3]) was 4.71e-05 ± 1.5e-05 s⁻¹. For the same variant, the “self-cleavage kobs at 10000 uM GlcN6P” value (glucosamine-6-phosphate [5]) was < 1e-05 s⁻¹.
